± gives the standard deviation of the averaged measurements.
system: ATP; assay: switch fluorescence ratio, 500 uM ATP over buffer (Cy3 cluster intensity, sum of 5 cycles each) (fold (ratio)); higher = stronger signal-on switching upon ATP binding; sequences stand for … in TCGTCGGCAGCGTCAGATGTGTATAAGAGACAGTTTTTTTTTTTTTTTTTTTTTTTTT…TC; settings: aptamer strand: ATP DNA aptamer (quencher-CACCTGGGGGAGTATTGCGGAGGAAGG + anchor), 100 nM annealed; ATP concentration: 500 uM
How it was run: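 Values give the fluorescence ratio for each switch-domain sequence, averaged from per-cluster ratios of summed target-cycle to summed buffer-cycle Cy3 intensity. The Cy3-labelled switching-strand clusters sat on a modified Illumina MiSeq flow-cell, were annealed to 100 nM quencher-labelled ATP aptamer, and were imaged in selection buffer, then after 15 min with 500 uM ATP at 22 °C. Five cycles ran with NaOH stripping and re-annealing between them, and clusters outside 100-1000 RFU were excluded.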
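Further: ATP exposure 15 min at 22 °C before imaging.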

Sequence | switch fluorescence ratio
TGACGAGCTG | 1.03 ± 0.035
TGACGGAGAA | 1.01 ± 0.015
TGACGGCCTG | 1.06 ± 0.022
TGACGGGAAT | 1.01 ± 0.013
TGACGGGCGG | 1 ± 0.015
TGACGGTGTC | 1.02 ± 0.0035
TGACGTCAGT | 0.972 ± 0.014
TGACTATGAT | 0.998 ± 0.015
TGACTATTAA | 0.9845 ± 0.0022
TGACTCACGG | 1.08 ± 0.029
TGACTTCGCT | 1.2 ± 0.18
TGACTTGGAC | 1.02 ± 0.013
TGACTTTGTG | 1.02 ± 0.044
TGACTTTTTC | 1.03 ± 0.016
TGAGAAAAAT | 0.973 ± 0.018
TGAGAACCCG | 1.02 ± 0.051
TGAGAGAGGG | 0.983 ± 0.012
TGAGAGATTG | 0.9773 ± 0.007
TGAGAGTAT | 1.01 ± 0.034
TGAGAGTGGG | 1.01 ± 0.021
TGAGATATTG | 0.997 ± 0.018
TGAGATCGCG | 1.004 ± 0.0018
TGAGATGGTG | 0.9739 ± 0.0014
TGAGATTTAG | 0.988 ± 0.026
TGAGATTTTT | 0.975 ± 0.048

Sequence | switch fluorescence ratio
TGAGCAGCGG | 1.01 ± 0.044
TGAGCCTTAG | 1.09 ± 0.05
TGAGCGGGTG | 1.01 ± 0.01
TGAGCGTG | 0.9816 ± 0.0078
TGAGCTAGGG | 1.005 ± 0.0026
TGAGCTAGGT | 1 ± 0.033
TGAGCTGGCT | 0.989 ± 0.021
TGAGGAGGTT | 0.981 ± 0.072
TGAGGCCGAA | 1.015 ± 0.0088
TGAGGCTAGG | 1.02 ± 0.017
TGAGGGAGGG | 1.01 ± 0.017
TGAGGGATGG | 1.01 ± 0.017
TGAGGGGATC | 1.02 ± 0.015
TGAGGGGGAT | 1 ± 0.051
TGAGGGGGGT | 0.976 ± 0.025
TGAGGGGTAA | 0.993 ± 0.042
TGAGGGGTCA | 1.002 ± 0.0076
TGAGGGGTTG | 1 ± 0.036
TGAGGGTTGG | 1.01 ± 0.027
TGAGGGTTGT | 1.01 ± 0.046
TGAGGTAACG | 0.992 ± 0.029
TGAGGTAGGA | 0.9781 ± 0.0014
TGAGGTCACG | 0.982 ± 0.036
TGAGGTCGCG | 0.9759 ± 0.0035
TGAGGTGTAT | 0.98719 ± 0.00023

Sequence | switch fluorescence ratio
TGAGGTTGTC | 0.981 ± 0.09
TGAGGTTTGA | 0.986 ± 0.02
TGAGTACAGC | 1.03 ± 0.092
TGAGTACGGG | 0.9844 ± 0.0025
TGAGTATAGT | 1.01 ± 0.035
TGAGTCCTCG | 0.995 ± 0.064
TGAGTCTGTT | 1.01 ± 0.028
TGAGTGACG | 1.0136 ± 0.00054
TGAGTGATTT | 1.02 ± 0.031
TGAGTGGGGC | 1.03 ± 0.025
TGAGTTATTT | 1.01 ± 0.012
TGAGTTCAAC | 1.04 ± 0.086
TGAGTTCGGC | 1.03 ± 0.015
TGAGTTGGGT | 0.986 ± 0.019
TGAGTTTGTT | 1.021 ± 0.0092
TGAGTTTTGG | 1.02 ± 0.015
TGAGTTTTTG | 0.998 ± 0.022
TGATAAAGAT | 1.02 ± 0.034
TGATAAATAC | 1.33 ± 0.069
TGATAATTTA | 1.06 ± 0.016
TGATACCATG | 0.997 ± 0.018
TGATAGCCAG | 0.9605 ± 0.0072
TGATAGGGCG | 0.963 ± 0.08
TGATATAAGC | 1.03 ± 0.015
TGATATCAAG | 0.979 ± 0.013

Sequence | switch fluorescence ratio
TGATATGGGA | 1.01 ± 0.03
TGATATTGTG | 0.994 ± 0.024
TGATATTTGT | 1.01 ± 0.027
TGATCAGATC | 1 ± 0.026
TGATCATATT | 1.024 ± 0.0079
TGATCCCGGG | 0.93018 ± 0.00028
TGATCGCTTT | 1.026 ± 0.01
TGATCGGGCG | 1.04 ± 0.02
TGATCTTGGA | 1.06 ± 0.055
TGATCTTGTT | 0.9619 ± 0.0037
TGATGAAAGG | 0.987 ± 0.031
TGATGAAATT | 1.02 ± 0.036
TGATGAGGAG | 0.996 ± 0.014
TGATGAGGAT | 1.007 ± 0.0083
TGATGAGGGT | 1.02 ± 0.02
TGATGATATG | 0.9929 ± 0.0094
TGATGCCGCT | 1.07 ± 0.083
TGATGCGGGT | 0.98723 ± 6.3e-05
TGATGCGTGT | 0.999 ± 0.027
TGATGCTCGG | 0.996 ± 0.069
TGATGGATGA | 1.01 ± 0.02
TGATGGGACT | 1.01 ± 0.029
TGATGGGAGT | 0.983 ± 0.014
TGATGGGGGT | 1.04 ± 0.042
TGATGGGTTT | 0.971 ± 0.043

— the supplement of paper PMC10126150
